Laboratory results taken from the RNAGym collection of RNA variant scans (doi:10.1021/acssynbio.7b00057).

B1: Pistol ribozyme (parent)
chain: GGGUCGUUGUUCCAUAAUCGCGUGGAUAUGGCACGCAAGUUUCUACCGGGCACCGUAAAUGUCCGACUGGAGCCGUUCGGGCGGCUAUAAACAGACCUCAGGCCCGAAGCGUGGCGGCACCUGCCGCCGGUGGUAAAAAAGAUCGGAAGAGCACACGUCU

Variants of: B1
Experiment: aptazyme ON/OFF ratio, guanine; higher = stronger switching; co-transcriptional cleavage with and without guanine

| Variant | aptazyme ON/OFF ratio |
| --- | --- |
| U7G U11C C12U C13G | 1.1 |
| U7G U11C C12U C13A | 1.13 |
| U7G U11C C12U C13U | 1.19 |
| U8A | 2.82 |
| U7G U10G U11C C12U | 1.17 |
| U7G U10G U11C C12A | 1.25 |
| U7G U10G U11C C12G | 1.25 |
| U7G U10A U11C C13G | 1.02 |
| U7G U10A U11C C13A | 1.04 |
| U7G U10A U11C C13U | 1.02 |
| U8A G9A C12U C13A | 1.19 |
| U8A G9A C12U C13U | 1.11 |
| U8A G9A C12U C13G | 1.17 |
| U7G U11G C13G | 1.08 |
| U7G U11G C13A | 1.06 |
| U7G U11G C13U | 1.1 |
| U8A C12A C13U | 1.19 |
| U8A C12A C13A | 1.24 |
| U8A C12A C13G | 1.13 |
| U8A G9A U10C C12A C13A | 1.19 |
| U8A G9A U10C C12A C13U | 1.18 |
| U8A G9A U10C C12A C13G | 1.13 |
| U8A C12G | 1.46 |
| U8A C12A | 1.3 |

| Variant | aptazyme ON/OFF ratio |
| --- | --- |
| U8A C12U | 1.62 |
| U7G U10G U11A C12A C13A | 1.14 |
| U7G U10G U11A C12A C13U | 1.08 |
| U7G U10G U11A C12A C13G | 1.09 |
| U8A G9A U10A C12A | 1.43 |
| U8A G9A U10A C12U | 1.24 |
| U8A G9A U10A C12G | 1.17 |
| U7G U10C C12U C13A | 1.04 |
| U7G U10C C12U C13U | 1.07 |
| U7G U10C C12U C13G | 1.06 |
| U7G U10G U11G C12G C13G | 1.11 |
| U7G U10G U11G C12G C13U | 1.29 |
| U7G U10G U11G C12G C13A | 1.1 |
| U8A G9A U10C | 2.54 |
| U8A G9A U10A | 1.65 |
| U7G U10C | 1.5 |
| U7G U10G | 1.42 |
| U7G U10G U11G C12A C13G | 1.1 |
| U7G U10G U11G C12A C13U | 1.13 |
| U7G U10G U11G C12A C13A | 1.08 |
| U8A G9A U10C U11A C12G C13G | 1.12 |
| U8A G9A U10C U11A C12G C13A | 1.19 |
| U8A G9A U10C U11A C12G C13U | 1.22 |
| U8A C12U C13G | 1.35 |

| Variant | aptazyme ON/OFF ratio |
| --- | --- |
| U8A C12U C13U | 1.38 |
| U8A C12U C13A | 1.28 |
| U7G U11G C12U C13U | 1.2 |
| U7G U11G C12U C13A | 1.14 |
| U7G U11G C12U C13G | 1.12 |
| U7G U10C U11C C12U C13U | 1.09 |
| U7G U10C U11C C12U C13G | 1.09 |
| U7G U10C U11C C12U C13A | 1.06 |
| U7G U10G C12G C13A | 1.21 |
| U7G U10G C12G C13G | 1.07 |
| U7G U10G C12G C13U | 1.12 |
| U7G U10A U11C C12U C13U | 1.08 |
| U7G U10A U11C C12U C13G | 1.05 |
| U7G U10A U11C C12U C13A | 1.12 |
| U7G U11A C12G C13U | 1.12 |
| U7G U11A C12G C13G | 1.11 |
| U7G U11A C12G C13A | 1.08 |
| U7G U10C U11A C12U C13U | 1.1 |
| U7G U10C U11A C12U C13A | 1.12 |
| U7G U10C U11A C12U C13G | 1.11 |
| U7G U10A U11C C12G C13A | 1.1 |
| U7G U10A U11C C12G C13G | 1.03 |
| U7G U10A U11C C12G C13U | 1.11 |
| U7G U11C C12A C13A | 1.12 |

| Variant | aptazyme ON/OFF ratio |
| --- | --- |
| U7G U11C C12A C13U | 1.22 |
| U7G U11C C12A C13G | 1.1 |
| U7G U10C U11C C12A C13A | 1.08 |
| U7G U10C U11C C12A C13G | 1.08 |
| U7G U10C U11C C12A C13U | 1.11 |
| U8A G9A U10A U11C C12A C13A | 1.19 |
| U8A G9A U10A U11C C12A C13U | 1.25 |
| U8A G9A U10A U11C C12A C13G | 1.16 |
| U7G U10A U11G C12G | 1.21 |
| U7G U10A U11G C12U | 1.32 |
| U7G U10A U11G C12A | 1.13 |
| U7G U10C C12A C13A | 1.1 |
| U7G U10C C12A C13G | 1.1 |
| U7G U10C C12A C13U | 1.12 |
| U8A G9A U10A U11C C13U | 1.05 |
| U8A G9A U10A U11C C13A | 1.04 |
| U8A G9A U10A U11C C13G | 1.04 |
| U7G U10A U11G C12U C13A | 1.17 |
| U7G U10A U11G C12U C13G | 1.22 |
| U7G U10A U11G C12U C13U | 1.28 |
| U8A G9A U10C C12U C13U | 1.2 |
| U8A G9A U10C C12U C13G | 1.26 |
| U8A G9A U10C C12U C13A | 1.17 |
| U7G U10G U11C C12A C13A | 1.11 |

| Variant | aptazyme ON/OFF ratio |
| --- | --- |
| U7G U10G U11C C12A C13U | 1.17 |
| U7G U10G U11C C12A C13G | 1.12 |
| U7G U10C U11G | 1.22 |
| U7G U10C U11C | 1.07 |
| U7G U10C U11A | 1.32 |
| U8A G9A U10A C12A C13U | 1.39 |
| U8A G9A U10A C12A C13G | 1.17 |
| U8A G9A U10A C12A C13A | 1.17 |
| U7G U10C U11G C12A C13A | 1.11 |
| U7G U10C U11G C12A C13G | 1.07 |
| U7G U10C U11G C12A C13U | 1.11 |
| U7G U10G U11G C12G | 1.15 |
| U7G U10G U11G C12A | 1.08 |
| U7G U10G U11G C12U | 1.24 |
| U7G U10G U11A C12U C13U | 1.08 |
| U7G U10G U11A C12U C13G | 1.16 |
| U7G U10G U11A C12U C13A | 1.1 |
| U7G U10A U11G C12G C13A | 1.18 |
| U7G U10A U11G C12G C13U | 1.63 |
| U7G U10A U11G C12G C13G | 1.26 |
| U8A G9A U10C U11A C12U C13A | 1.31 |
| U8A G9A U10C U11A C12U C13U | 1.33 |
| U8A G9A U10C U11A C12U C13G | 1.21 |
| U8A G9A C13U | 1.23 |

| Variant | aptazyme ON/OFF ratio |
| --- | --- |
| U8A G9A C13A | 1.19 |
| U8A G9A C13G | 1.12 |
| U8A G9A U10C U11C C12A | 1.08 |
| U8A G9A U10C U11A | 1.33 |
| U8A G9A U10C U11C | 1.04 |
| U8A G9A U10A U11C C12G C13U | 1.25 |
| U8A G9A U10A U11C C12G C13A | 1.16 |
| U8A G9A U10A U11C C12G C13G | 1.21 |
| U7G U10G U11A C12G | 1.08 |
| U7G U10G U11A C12U | 1.1 |
| U7G U10G U11A C12A | 1.14 |
| U7G U11A C13U | 1.36 |
| U7G U11A C13A | 1.16 |
| U7G U11A C13G | 1.08 |
| U7G U10G C12A C13G | 1.11 |
| U7G U10G C12A C13A | 1.09 |
| U7G U10G C12A C13U | 1.34 |
| U7G U11G C12A C13A | 1.13 |
| U7G U11G C12A C13U | 1.14 |
| U7G U11G C12A C13G | 1.11 |
| U8A G9A C12A C13U | 1.19 |
| U8A G9A C12A C13A | 1.3 |
| U8A G9A C12A C13G | 1.1 |
| U8A G9A | 1.91 |

| Variant | aptazyme ON/OFF ratio |
| --- | --- |
| U7G U11C C12A | 1.21 |
| U7G U11C C12U | 1.27 |
| U7G U11C C12G | 1.26 |
| U8A G9A U10C C12G | 1.18 |
| U8A G9A U10C C12A | 1.15 |
| U8A G9A U10C C12U | 1.24 |
| U8A G9A U10A C12G C13U | 1.42 |
| U8A G9A U10A C12G C13A | 1.25 |
| U8A G9A U10A C12G C13G | 1.28 |
| U7G U10C U11G C13U | 1.14 |
| U7G U10C U11G C13A | 1.08 |
| U7G U10C U11G C13G | 1.09 |
| U7G U11A C12U | 1.68 |
| U7G U11A C12A | 1.16 |
| U7G U11A C12G | 1.18 |
| U8A C13A | 1.24 |
| U8A C13G | 1.11 |
| U8A C13U | 1.43 |
| U7G U10A U11G C13U | 1.22 |
| U7G U10A U11G C13A | 1.16 |
| U7G U10A U11G C13G | 1.14 |
| U7G U11C C12G C13A | 1.2 |
| U7G U11C C12G C13G | 1.09 |
